Measurements taken from the supplement of paper PMC10724198.
± gives the standard deviation of the averaged measurements.

System: Saccharomyces cerevisiae
Experiment: protein stability index of tFT-peptide fusion (C-terminal peptide) (PSI (0-1 scale)); higher = more stable (slower turnover)
Settings: genetic background: wild type; temperature: 30 C
Protocol: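 Multiplexed protein stability (MPS) profiling in S. cerevisiae. Random 12-aa peptides (tFT-X12 library) are fused to the C-terminus of a sfGFP-mCherry tandem fluorescent timer, after mCherry and a GGGS linker. Cells are FACS-sorted into 8 mCherry/sfGFP bins and deep-sequenced. The protein stability index (PSI) is the read-weighted bin average, scaled from 0 (unstable) to 1 (stable). Only peptides with >10 reads are reported; cells were grown at 30 °C in SC-His with glucose.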
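Further: PSI is a weighted mean of sequencing reads over stability bins, variants kept only with over 10 reads, mCherry proximal and sfGFP distal, peptide attached via GGGS linker.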

Sequence | protein stability index
GGWWSCAWGVRG | 0.627 ± 0.065
GHEKAGPSIGFL | 0.644 ± 0.027
GHFWVFGIPFFR | 0.6547 ± 0.0017
GHVCNSIVPFRV | 0.624 ± 0.022
GHVPIWPFLSLS | 0.6664 ± 0.0042
GIASKCFWFVCG | 0.645 ± 0.018
GICDAVLFTMLV | 0.682 ± 0.068
GIKQEMKYQVGK | 0.665 ± 0.07
GILRGSKKVDPP | 0.622 ± 0.029
GILYFPAGHHAG | 0.627 ± 0.035
GIPWSVLLSSYW | 0.713 ± 0.033
GIQAGGGGGKGG | 0.676 ± 0.022
GIQIRIDNQKKN | 0.67 ± 0.025
GIVFVFGGGLAL | 0.702 ± 0.078
GIVVTCLRSRWD | 0.647 ± 0.013
GKADRRKSEHVR | 0.733 ± 0.047
GKCFSFSFNCLH | 0.521 ± 0.023
GKFVEVVRFWSV | 0.721 ± 0.074
GKGREGVGEVGK | 0.6753 ± 0.0043
GKGRIWTGRKGC | 0.68 ± 0.098
GKGYVFRTLSHL | 0.732 ± 0.082
GKIGAIRVVGWA | 0.662 ± 0.02
GKLLPCVRGRGL | 0.665 ± 0.024
GKNGKNMDKDNK | 0.676 ± 0.019
GKNRKKEEHAKR | 0.702 ± 0.12

Sequence | protein stability index
GKRGKKVKKKSK | 0.621 ± 0.016
GKRKEAVLRMMI | 0.6213 ± 0.0017
GKSLIKRYANKI | 0.7436 ± 0.0019
GKSREKEKESRE | 0.658 ± 0.032
GKTNKALDRISI | 0.679 ± 0.038
GKYKKGNSIAIE | 0.598 ± 0.012
GLAPYRPVITFS | 0.675 ± 0.002
GLCGVVFGGRGE | 0.657 ± 0.064
GLCPCGDAISTR | 0.682 ± 0.053
GLEGSVRRVRGS | 0.701 ± 0.011
GLESVGRVSLRG | 0.657 ± 0.0094
GLFFISLFFPFL | 0.575 ± 0.0096
GLFVSLRGLSLS | 0.71 ± 0.044
GLGRRRGVGGVR | 0.709 ± 0.0027
GLGVCGTGIGGV | 0.656 ± 0.014
GLIVGLLGVSGF | 0.591 ± 0.0062
GLKTLQTCRIIR | 0.691 ± 0.054
GLLENLKKRSRG | 0.691 ± 0.07
GLLRGHVFVGRG | 0.692 ± 0.029
GLLSLPPRLPFL | 0.672 ± 0.073
GLLTFPPNRSGG | 0.67 ± 0.05
GLMRDKEMRMPK | 0.68 ± 0.036
GLNVLVWALLSQ | 0.548 ± 0.032
GLPCLSPPLAPS | 0.683 ± 0.034
GLPRCMDWSIRR | 0.6764 ± 0.00099

Sequence | protein stability index
GLPTPSNVPPFG | 0.703 ± 0.01
GLRQVPGDLAEG | 0.699 ± 0.039
GLSGVVGSRCHC | 0.713 ± 0.02
GLSLFPVTFFLR | 0.585 ± 0.02
GLSPDFRFMGVR | 0.667 ± 0.029
GLSSLVLRFFLP | 0.663 ± 0.025
GLSTPPSPALLR | 0.748 ± 0.013
GLTWFRQARAAL | 0.718 ± 0.039
GLVDARRRWCFS | 0.62 ± 0.0073
GLVHGSWGCQCD | 0.714 ± 0.015
GLVRGGGGTVGG | 0.81 ± 0.22
GLVSSDVGFRGY | 0.73 ± 0.019
GLYHGFCLSGCL | 0.678 ± 0.04
GMGLWCLSGLFP | 0.7131 ± 0.0067
GMKDKSVRTIKK | 0.721 ± 0.0035
GMLGVGGYGGLW | 0.717 ± 0.078
GNAKKRKNKEKK | 0.651 ± 0.09
GNCVESCMWQRE | 0.704 ± 0.05
GNKAPHTRTIGG | 0.706 ± 0.028
GPALCPVWATYG | 0.591 ± 0.0086
GPGGGGGLWVRV | 0.617 ± 0.016
GPGTSSSGLVFT | 0.692 ± 0.029
GPKTFIRSTKEI | 0.697 ± 0.03
GPPLSPPLLLLL | 0.681 ± 0.046
GPPPLPSPPSHP | 0.753 ± 0.1

Sequence | protein stability index
GPPPPPRPPLPP | 0.665 ± 0.049
GPPTASPLVAPA | 0.621 ± 0.02
GPRGWRASVWAG | 0.687 ± 0.07
GPRVFKPRTTHG | 0.663 ± 0.025
GPSFVVTVGNGG | 0.686 ± 0.02
GPSVPPLPRHEL | 0.728 ± 0.051
GPSVRSTARGPG | 0.724 ± 0.12
GPVCVVSGVFTV | 0.665 ± 0.072
GPYDLPCLPLSA | 0.633 ± 0.014
GQAGGRVEVREP | 0.6887 ± 0.005
GQCQERRKGGCA | 0.577 ± 0.0063
GQCRFVEDVYVT | 0.685 ± 0.009
GQMYTLATSAVV | 0.602 ± 0.076
GQRRDSSSEVWG | 0.67 ± 0.017
GQRWADGGFVEV | 0.783 ± 0.1
GQVTAHFRLARV | 0.697 ± 0.049
GRAGGDGVGGGV | 0.6382 ± 0.0024
GRCHRFQWSVRR | 0.681 ± 0.015
GRDKGNLQSLRR | 0.732 ± 0.014
GRGGLGGWEWDR | 0.712 ± 0.034
GRGGLGWWEWDR | 0.7462 ± 0.0067
GRGGVGWGEWDR | 0.729 ± 0.056
GRGGWVHRRIGA | 0.676 ± 0.035
